Measurements published in patent publication US20190328677A1.
Blank lines part the entries; values can stand above or below the substance they belong to.

Assays:
[1] = molecular target: Fn14 extracellular domain (recombinant, Cell Sciences); experiment: SPR (Biacore), Fn14 extracellular domain on chip, binding isotherm of RUeq, per nanoparticle
[2] = molecular target: human Fn14 on cells (MEF Fn14-V5, U87-Luc/GFP, 231-Luc) (human); experiment: flow cytometry, human U87-Luc/GFP GBM cells
[3] = molecular target: Fn14 extracellular domain (recombinant, Cell Sciences); experiment: SPR (Biacore), ratio of KD against free ITEM4
[4] = molecular target: human Fn14 on cells (MEF Fn14-V5, U87-Luc/GFP, 231-Luc) (human); experiment: flow cytometry, MEF Fn14-V5 cells expressing human Fn14
[5] = molecular target: Fn14 extracellular domain (recombinant, Cell Sciences); experiment: SPR (Biacore 3000), Fn14 extracellular domain on CM5 chip, equilibrium fit, per nanoparticle
[6] = molecular target: Fn14 extracellular domain (recombinant, Cell Sciences); experiment: SPR (Biacore 3000), Fn14 extracellular domain on CM5 chip, equilibrium fit
[7] = molecular target: human Fn14 on cells (MEF Fn14-V5, U87-Luc/GFP, 231-Luc) (human); experiment: human U87 glioma cells treated with fluorescent particles (FIG. 3C; legend says flow cytometry)
[8] = molecular target: human Fn14 on cells (MEF Fn14-V5, U87-Luc/GFP, 231-Luc) (human); experiment: cell-based or functional assay
[9] = molecular target: human Fn14 on cells (MEF Fn14-V5, U87-Luc/GFP, 231-Luc) (human); experiment: flow cytometry, 231-Luc cells
[10] = molecular target: Fn14 extracellular domain (recombinant, Cell Sciences); experiment: SPR (Biacore), Fn14 chip, nanoparticles first incubated with mouse blood serum

Substance: PLGA-PEG10%-ITEM40.1% nanoparticles
Kd [1]: 26.5 nM

Substance: PLGA-PEG1%-ITEM41% nanoparticles
Kd [1]: 3.2 nM

Substance: CNP-ITEM4 (high): 100 nm PEG-coated polystyrene nanoparticles decorated with a high density of ITEM4
fold cellular uptake efficiency against CNP alone [2]: 3.5 fold
fold higher binding affinity than ITEM4 alone [3]: 65 fold
fold cellular uptake against CNP [4]: 2.5 fold
Kd [5]: 0.024 nM

Substance: BPN conjugated with ITEM4 at high density
fold increase in binding to glioma cells against non-targeted BPN [7]: 4.5 fold

Substance: PLGA-PEG5%-ITEM41% nanoparticles
Kd [1]: 2.4 nM

Substance: CNP-ITEM4 (low): 100 nm PEG-coated polystyrene nanoparticles decorated with a low density of ITEM4
fold cellular uptake efficiency against CNP alone [2]: 1.25 fold
fold higher binding affinity than ITEM4 alone [3]: 15 fold
Kd [5]: 0.106 nM

Further lines, with some results ahead:

Kd [6]: 1.62 nM
Substance: ITEM4 monoclonal antibody (Fn14-specific monoclonal antibody)

Kd [1]: 2.6 nM
Substance: PLGA-PEG10%-ITEM410% nanoparticles

Kd [6]: 1.57 nM
Substance: thiol-modified ITEM4 (ITEM4-SH) (antibody)

fold cellular association efficiency against PLGA-PEG [9]: 2.5 fold
Kd [10]: 6.1 nM
Kd [1]: 1.9 nM
Substance: PLGA-PEG10%-ITEM41% nanoparticles (optimized DART nanoparticles)
IC50 (as paclitaxel), viability of 231-Luc cells by MTS assay, 2 h exposure then 24 h in fresh medium (in vitro clearance study), paclitaxel-loaded particles [8]: 130 nM
